Data published in the supplement of paper PMC9112550, “Optimization of the antimicrobial peptide Bac7 by deep mutational scanning” (BMC Biology, 2022).

Test system: Escherichia coli TOP10
Assay: shrunken log2 fold change of peptide-encoding DNA abundance (4.5 h post-induction vs induction); higher = less antimicrobial activity (less host growth inhibition)
Settings: time post-induction: 4.5 h; library: site-saturation at positions 5, 18, 19, 20
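Note: peptides expressed intracellularly from a pBAD plasmid library in pooled LB shake-flask culture, induced with 0.3% L-arabinose, DNA abundance read by NGS, three biological replicates, DESeq2 with apeglm shrinkage.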

| Sequence | shrunken log2 fold change |
| --- | --- |
| RRIRERPPRLPRPRPRPISNPRP | -0.25 |
| RRIRERPPRLPRPRPRPITFPRP | -0.338 |
| RRIRERPPRLPRPRPRPITVPRP | 0.0995 |
| RRIRERPPRLPRPRPRPIWMPRP | 0.0239 |
| RRIRERPPRLPRPRPRPIWWPRP | -0.0447 |
| RRIRERPPRLPRPRPRPIWYPRP | 0.0381 |
| RRIRERPPRLPRPRPRPIYLPRP | -0.649 |
| RRIRERPPRLPRPRPRPIYVPRP | -1.09 |
| RRIRERPPRLPRPRPRPKCSPRP | -0.0163 |
| RRIRERPPRLPRPRPRPKDAPRP | -0.222 |
| RRIRERPPRLPRPRPRPKDGPRP | 0.0062 |
| RRIRERPPRLPRPRPRPKDLPRP | 0.167 |
| RRIRERPPRLPRPRPRPKDYPRP | 0.101 |
| RRIRERPPRLPRPRPRPKFDPRP | 0.154 |
| RRIRERPPRLPRPRPRPKHFPRP | -0.248 |
| RRIRERPPRLPRPRPRPKHHPRP | -0.217 |
| RRIRERPPRLPRPRPRPKIWPRP | 0.0407 |
| RRIRERPPRLPRPRPRPKKKPRP | -0.0784 |
| RRIRERPPRLPRPRPRPKKTPRP | -0.0747 |
| RRIRERPPRLPRPRPRPKPSPRP | 0.229 |
| RRIRERPPRLPRPRPRPKQNPRP | -0.073 |
| RRIRERPPRLPRPRPRPKQVPRP | -0.131 |
| RRIRERPPRLPRPRPRPKRHPRP | 0.0422 |
| RRIRERPPRLPRPRPRPKWGPRP | -0.0917 |
| RRIRERPPRLPRPRPRPKWSPRP | -0.146 |

| Sequence | shrunken log2 fold change |
| --- | --- |
| RRIRERPPRLPRPRPRPLALPRP | -0.265 |
| RRIRERPPRLPRPRPRPLAWPRP | 0.039 |
| RRIRERPPRLPRPRPRPLCFPRP | -0.313 |
| RRIRERPPRLPRPRPRPLFGPRP | -0.0794 |
| RRIRERPPRLPRPRPRPLGGPRP | -0.073 |
| RRIRERPPRLPRPRPRPLGQPRP | 0.0127 |
| RRIRERPPRLPRPRPRPLICPRP | -0.74 |
| RRIRERPPRLPRPRPRPLKGPRP | 0.176 |
| RRIRERPPRLPRPRPRPLKIPRP | -0.402 |
| RRIRERPPRLPRPRPRPLLNPRP | 0.0481 |
| RRIRERPPRLPRPRPRPLPMPRP | 0.187 |
| RRIRERPPRLPRPRPRPLPQPRP | -0.06 |
| RRIRERPPRLPRPRPRPLRHPRP | 0.11 |
| RRIRERPPRLPRPRPRPLRNPRP | 0.308 |
| RRIRERPPRLPRPRPRPLSHPRP | -0.314 |
| RRIRERPPRLPRPRPRPLTLPRP | -0.271 |
| RRIRERPPRLPRPRPRPLVDPRP | -0.135 |
| RRIRERPPRLPRPRPRPLWMPRP | 0.00675 |
| RRIRERPPRLPRPRPRPLYMPRP | -0.748 |
| RRIRERPPRLPRPRPRPLYTPRP | -0.41 |
| RRIRERPPRLPRPRPRPMATPRP | 0.0537 |
| RRIRERPPRLPRPRPRPMGGPRP | 0.0346 |
| RRIRERPPRLPRPRPRPMGTPRP | -0.272 |
| RRIRERPPRLPRPRPRPMHEPRP | -0.401 |
| RRIRERPPRLPRPRPRPMHFPRP | -0.163 |

| Sequence | shrunken log2 fold change |
| --- | --- |
| RRIRERPPRLPRPRPRPMICPRP | -0.115 |
| RRIRERPPRLPRPRPRPMISPRP | -0.11 |
| RRIRERPPRLPRPRPRPMLAPRP | 0.193 |
| RRIRERPPRLPRPRPRPMMDPRP | -0.0298 |
| RRIRERPPRLPRPRPRPMMIPRP | -0.251 |
| RRIRERPPRLPRPRPRPMPEPRP | -0.114 |
| RRIRERPPRLPRPRPRPMPHPRP | -0.083 |
| RRIRERPPRLPRPRPRPMPRPRP | 0.0247 |
| RRIRERPPRLPRPRPRPMPSPRP | 0.156 |
| RRIRERPPRLPRPRPRPMQCPRP | -0.211 |
| RRIRERPPRLPRPRPRPMTNPRP | -0.112 |
| RRIRERPPRLPRPRPRPMVSPRP | -0.0769 |
| RRIRERPPRLPRPRPRPMVTPRP | -0.0939 |
| RRIRERPPRLPRPRPRPMWDPRP | -0.0758 |
| RRIRERPPRLPRPRPRPMWYPRP | -0.379 |
| RRIRERPPRLPRPRPRPMYDPRP | -0.266 |
| RRIRERPPRLPRPRPRPMYLPRP | -1.99 |
| RRIRERPPRLPRPRPRPNCCPRP | -0.00112 |
| RRIRERPPRLPRPRPRPNCVPRP | -0.0533 |
| RRIRERPPRLPRPRPRPNDQPRP | 0.0572 |
| RRIRERPPRLPRPRPRPNEPPRP | -0.129 |
| RRIRERPPRLPRPRPRPNFGPRP | 0.0437 |
| RRIRERPPRLPRPRPRPNFQPRP | 0.0442 |
| RRIRERPPRLPRPRPRPNGQPRP | 0.0342 |
| RRIRERPPRLPRPRPRPNKMPRP | -0.324 |
